In PMC6713926 (2019):
Numbering of substitutions follows the chain as printed. Numbers in names are those of the source.

B1: FPht Q343R (complex)
chain 1: DPVLCFTQYEESSGKCKGLLGGGVSVEDCCLNTAFAYQKRSGGLCQPCRSPRWSLWSTWAPCSVTCSEGSQLRYRRCVGWNGQCSGKVAPGTLEWQLQACEDQQCCPEMGGWSGWGPWEPCSVTCSKGTRTRRRACNHPAPKCGGHCPGQAQESEACDTQQVCPTHGAWATWGPWTPCSASCHGGPHEPKETRSRKCSAPEPSQKPPGKPCPGLAYEQRRCTGLPPCP
chain 2: VAGGWGPWGPVSPCPVTCGLGQTMEQRTCNHPVPQHGGPFCAGDATRTHICNTAVPCPVDGEWDSWGEWSPCIRRNMKSISCQEIPGRQSRGRTCRGRKFDGHRCAGQQQDIRHCYSIQHCPLKGSWSEWSTWGLCMPPCGPNPTRARQRLCTPLLPKYPPTVSMVEGQGEKNVTFWGRPLPRCEELQGQKLVVEEKRPCLHVPACKDPEEEEL
B2: FPht Y414D (complex)
chain 1: B1 chain 1
chain 2: B1 chain 2 with R88Q, Y159D

Target: Biotinylated C3b (human, UniProt P01024 23-667; P01024 749-1663, biotin (Maleimide-PEG2-Biotin))
Sequence (P01024 23-667, chain 1 of 2): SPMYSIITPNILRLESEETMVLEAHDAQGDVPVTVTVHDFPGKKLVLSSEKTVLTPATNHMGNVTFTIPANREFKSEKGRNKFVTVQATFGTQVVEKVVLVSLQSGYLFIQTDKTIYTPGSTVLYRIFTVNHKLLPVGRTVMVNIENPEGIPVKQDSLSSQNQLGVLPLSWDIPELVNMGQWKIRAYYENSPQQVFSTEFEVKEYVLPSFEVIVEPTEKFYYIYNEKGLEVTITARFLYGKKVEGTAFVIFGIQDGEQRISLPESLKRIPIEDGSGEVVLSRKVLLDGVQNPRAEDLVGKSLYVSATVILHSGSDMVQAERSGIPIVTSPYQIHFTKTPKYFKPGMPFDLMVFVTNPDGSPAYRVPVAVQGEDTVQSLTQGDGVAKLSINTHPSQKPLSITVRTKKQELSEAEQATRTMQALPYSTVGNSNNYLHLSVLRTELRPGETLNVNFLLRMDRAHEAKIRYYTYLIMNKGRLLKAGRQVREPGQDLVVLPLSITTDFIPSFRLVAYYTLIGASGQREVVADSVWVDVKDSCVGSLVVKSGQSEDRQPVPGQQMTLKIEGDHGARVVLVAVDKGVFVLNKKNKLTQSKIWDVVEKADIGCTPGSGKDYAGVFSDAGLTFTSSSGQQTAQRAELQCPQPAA
Sequence (P01024 749-1663, chain 2 of 2): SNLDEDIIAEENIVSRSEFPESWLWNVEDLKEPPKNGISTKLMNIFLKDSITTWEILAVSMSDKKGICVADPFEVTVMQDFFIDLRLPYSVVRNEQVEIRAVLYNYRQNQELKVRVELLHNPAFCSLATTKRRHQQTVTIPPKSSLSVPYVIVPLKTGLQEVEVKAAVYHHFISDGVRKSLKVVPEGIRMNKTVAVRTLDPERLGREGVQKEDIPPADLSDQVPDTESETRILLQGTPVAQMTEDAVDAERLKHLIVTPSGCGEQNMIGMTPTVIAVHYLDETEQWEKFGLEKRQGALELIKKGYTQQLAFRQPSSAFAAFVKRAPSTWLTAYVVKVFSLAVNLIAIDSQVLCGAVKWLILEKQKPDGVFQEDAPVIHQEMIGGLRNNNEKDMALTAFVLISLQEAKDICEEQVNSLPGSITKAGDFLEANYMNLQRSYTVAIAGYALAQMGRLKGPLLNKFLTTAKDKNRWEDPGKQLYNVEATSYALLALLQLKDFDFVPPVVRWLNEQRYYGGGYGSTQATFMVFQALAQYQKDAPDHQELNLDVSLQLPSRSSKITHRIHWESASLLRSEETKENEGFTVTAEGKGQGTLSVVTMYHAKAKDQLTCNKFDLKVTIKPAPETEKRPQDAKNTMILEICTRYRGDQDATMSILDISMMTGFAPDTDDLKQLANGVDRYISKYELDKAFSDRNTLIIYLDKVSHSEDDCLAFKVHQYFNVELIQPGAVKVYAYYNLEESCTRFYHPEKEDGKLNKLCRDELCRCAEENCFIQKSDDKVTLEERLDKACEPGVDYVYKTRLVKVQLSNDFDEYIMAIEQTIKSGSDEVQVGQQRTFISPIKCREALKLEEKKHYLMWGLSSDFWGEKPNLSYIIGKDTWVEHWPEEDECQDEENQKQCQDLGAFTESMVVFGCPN
Assay: BLI

| Binder | Kd [µM] |
| --- | --- |
| B1 | 4 |
| B2 | 5 |
